We go through 3 substances from article PMC4485566.

One data set has as its target His79 (UniProt position 85, YIPGTHMAFGG). Put plainly: UV-vis. The settings on record: ferric protein implied, His79-mediated alkaline transition.
The target of a further data set is His73 (UniProt position 79, LTNPKHYIPGT). Put plainly: UV-vis. The following applies: ferric protein implied (alkaline transition); cited from earlier work.

In the data set with His79, “iso-1-cytochrome c, yWT/K79H variant (Saccharomyces cerevisiae; K79H)” gave a pKa of 6.62 ± 0.08.
Turning to “iso-1-cytochrome c, WT*/K79H variant (Saccharomyces cerevisiae; K72A;K79H;C102S)”, in the data set with His79 (cited from earlier work), the pKa is recorded as 6.35 ± 0.04.
For the substance “iso-1-cytochrome c, yWT/K73H variant (Saccharomyces cerevisiae; K73H)”, the pKa with His73 is 6.60 ± 0.06.

As usually defined, the pKa is the negative logarithm of the acid dissociation constant.
